Reference: PMC7139703, “Thiopurine Derivative-Induced Fpg/Nei DNA Glycosylase Inhibition: Structural, Dynamic and Functional Insights” (International Journal of Molecular Sciences, 2020)

What was measured:
Experiment in all cases: EMSA
[1] = molecular target: T1, LlFpg (Lactococcus lactis) (UniProt P42371); conditions: 8% DMSO, no inhibitor, complex C1 (1:1), N at position 7 of strand 1 = tetrahydrofuran (THF) abasic site analog, opposite C, EMSA: 0.1 nM probe, 25 mM HEPES/NaOH pH 7.5, 150 mM NaCl, 5% glycerol, 0.1 mg/mL BSA, 4 °C, 30 min, 10% native PAGE at 4 °C
T1 sequence: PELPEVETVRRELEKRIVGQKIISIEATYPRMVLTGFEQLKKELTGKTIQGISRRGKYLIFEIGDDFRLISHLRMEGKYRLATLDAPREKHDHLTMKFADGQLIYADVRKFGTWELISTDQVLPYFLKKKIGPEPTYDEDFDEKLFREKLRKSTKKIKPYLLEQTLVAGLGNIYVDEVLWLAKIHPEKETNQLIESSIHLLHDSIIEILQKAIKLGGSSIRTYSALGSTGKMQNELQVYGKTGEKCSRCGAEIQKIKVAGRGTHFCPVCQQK

mvNei1 (mimivirus) = conditions: N at position 7 of strand 1 = tetrahydrofuran (THF) abasic site analog, opposite C; EMSA: 0.1 nM probe, 25 mM HEPES/NaOH pH 7.5, 150 mM NaCl, 5% glycerol, 0.1 mg/mL BSA, 8% DMSO, 4 °C, 30 min; 10% native PAGE at 4 °C
[2] = molecular target: ∆hNeil1 (truncated hNeil1) (human) (UniProt Q96FI4); conditions: 8% DMSO, no inhibitor, named hNeil1 in the sentence, N at position 7 of strand 1 = tetrahydrofuran (THF) abasic site analog, opposite C, EMSA: 0.1 nM probe, 25 mM HEPES/NaOH pH 7.5, 150 mM NaCl, 5% glycerol, 0.1 mg/mL BSA, 4 °C, 30 min, 10% native PAGE at 4 °C
∆hNeil1 (truncated hNeil1) (human), sequence (Q96FI4 whole entry, the tested form may be a part): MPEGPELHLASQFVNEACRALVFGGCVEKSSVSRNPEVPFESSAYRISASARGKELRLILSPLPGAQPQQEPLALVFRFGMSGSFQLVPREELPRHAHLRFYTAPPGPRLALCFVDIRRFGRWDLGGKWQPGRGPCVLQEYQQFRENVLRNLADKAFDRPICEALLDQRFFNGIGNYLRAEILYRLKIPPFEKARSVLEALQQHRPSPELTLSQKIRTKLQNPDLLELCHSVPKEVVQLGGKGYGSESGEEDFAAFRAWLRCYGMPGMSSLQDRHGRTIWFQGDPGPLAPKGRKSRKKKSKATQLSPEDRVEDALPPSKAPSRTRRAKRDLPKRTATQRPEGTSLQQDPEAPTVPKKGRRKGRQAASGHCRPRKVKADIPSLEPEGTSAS

Sequence: CTCTTTNTTTCTCG / GCGAGAAACAAAGA [14-mer THF:C]
- K half [1]: 0.25 nM
- K half (mvNei1 (mimivirus)): 5 nM
- K half [2]: 7 nM
